Experiments:
Assay in all cases: cell-based or functional assay
[1] = molecular target: HIV-1 Env of pseudovirus BJOX009000.02.4 (clade CRF01_AE) (HIV-1)
[2] = molecular target: HIV-1 Env of pseudovirus R3265.c06 (clade CRF01_AE) (HIV-1)
[3] = molecular target: MuLV envelope (negative control pseudovirus) (MuLV)
[4] = molecular target: HIV-1 Env of pseudovirus 1012_11_TC21_3257 (clade B (T/F)) (HIV-1)
[5] = molecular target: HIV-1 Env of pseudovirus 1394C9G1(Rev-) (clade C (T/F)) (HIV-1)
[6] = molecular target: HIV-1 Env of pseudovirus 6535.3 (clade B) (HIV-1)
[7] = molecular target: HIV-1 Env of pseudovirus CAP210.2.00.E8 (clade C) (HIV-1)
[8] = molecular target: HIV-1 Env of pseudovirus CNE20 (clade BC) (HIV-1)
[9] = molecular target: HIV-1 Env of pseudovirus Ce0393_C3 (clade C (T/F)) (HIV-1)
[10] = molecular target: HIV-1 Env of pseudovirus Ce0682_E4 (clade C (T/F)) (HIV-1)
[11] = molecular target: HIV-1 Env of pseudovirus HIV-0013095-2.11 (clade C) (HIV-1)
[12] = molecular target: HIV-1 Env of pseudovirus Q461.e2 (clade A) (HIV-1)
[13] = molecular target: HIV-1 Env of pseudovirus Q842.d12 (clade A) (HIV-1)
[14] = molecular target: HIV-1 Env of pseudovirus QH0692.42 (clade B) (HIV-1)
[15] = molecular target: HIV-1 Env of pseudovirus REJO4541.67 (clade B) (HIV-1)
[16] = molecular target: HIV-1 Env of pseudovirus TRJO4551.58 (clade B) (HIV-1)
[17] = molecular target: HIV-1 Env of pseudovirus ZM197M.PB7 (clade C) (HIV-1)
[18] = molecular target: HIV-1 Env of pseudovirus ZM249M.PL1 (clade C) (HIV-1)

In the case of 10-1074 (antibody), the IC50, titer in TZM.bl cells [1] was > 50 µg/mL and the IC80, titer in TZM.bl cells [1] was > 50 µg/mL.

For 10E8 (antibody), the IC50, titer in TZM.bl cells [1] was 1.57 µg/mL, the IC80, titer in TZM.bl cells [1] was 9.95 µg/mL and the IC50, titer in TZM.bl cells [2] was > 10 µg/mL. For the same substance, the IC80, titer in TZM.bl cells [2] was > 10 µg/mL.

In the case of N49P6 (antibody), the IC50 [3] was > 50 µg/mL, the IC80 [3] was > 50 µg/mL and the MPI [3] was 0.

In the case of N49P7 (antibody), the IC50, neutralization titer in TZM.bl cells [3] was > 50 µg/mL, the IC80, neutralization titer in TZM.bl cells [3] was > 50 µg/mL and the MPI, neutralization in TZM.bl cells [3] was 9.

In the case of N49P7.1 (antibody), the IC50, neutralization titer in TZM.bl cells [3] was > 50 µg/mL, the IC80, neutralization titer in TZM.bl cells [3] was > 50 µg/mL and the MPI, neutralization in TZM.bl cells [3] was 4.

N49P7.2 (antibody) was tested, and the IC50 [4] was 0.06 µg/mL, the IC80 [4] was 0.285 µg/mL and the MPI [4] was 100. The IC50 [5] was > 50 µg/mL, the IC80 [5] was > 50 µg/mL and the MPI [5] was 20. The IC50 [6] was 0.152 µg/mL, the IC80 [6] was 0.784 µg/mL and the MPI [6] was 100. It also gave an IC50 [7] of 3.94 µg/mL, an IC80 [7] of 21.7 µg/mL and an MPI [7] of 95. It also gave an IC50 [8] of 0.119 µg/mL, an IC80 [8] of 0.574 µg/mL and an MPI [8] of 99. It also gave an IC50 [9] of 0.137 µg/mL, an IC80 [9] of 0.368 µg/mL and an MPI [9] of 100. The IC50 [10] was 0.067 µg/mL, the IC80 [10] was 0.233 µg/mL and the MPI [10] was 100. It also gave an IC50 [11] of 0.183 µg/mL, an IC80 [11] of 0.931 µg/mL and an MPI [11] of 97. For the same substance, the IC50 [12] was 0.472 µg/mL, the IC80 [12] was 2.24 µg/mL and the MPI [12] was 100. It also gave an IC50 [13] of 0.045 µg/mL, an IC80 [13] of 0.2 µg/mL and an MPI [13] of 100. The IC50 [14] was 1.26 µg/mL, the IC80 [14] was 4.42 µg/mL and the MPI [14] was 100. It also gave an IC50 [15] of 0.018 µg/mL, an IC80 [15] of 0.08 µg/mL and an MPI [15] of 100. It also gave an IC50 [16] of 0.21 µg/mL, an IC80 [16] of 0.673 µg/mL and an MPI [16] of 100. For the same substance, the IC50 [17] was 0.223 µg/mL, the IC80 [17] was 1.37 µg/mL and the MPI [17] was 100. For the same substance, the IC50 [18] was 0.073 µg/mL, the IC80 [18] was 0.256 µg/mL and the MPI [18] was 100. For the same substance, the IC50 [3] was > 50 µg/mL, the IC80 [3] was > 50 µg/mL and the MPI [3] was 4.

From patent US20230002480A1
